± gives the standard deviation of the averaged measurements.
B1: library; a variant is named by its letters at N, in order (parent)
chain: GCUGUCACCGGUGUAUUACCCUAGUGGUCGACCGGUCUGAUGAGUCUNNNNNNAGACGAAACAGC

Columns and labels:
hypoxanthine [1] = variants of: B1; assay: normalized RNA/DNA level with ligand (relative to sTRSVctl = 100) (log10 (% of sTRSVctl)); ligand: hypoxanthine (xanthine aptamer); higher = less ribozyme self-cleavage, higher mRNA level; details: ligand concentration (+) RNA-Seq: 5 mM, HEK293T, reporter: mCherry (pCS4076), ligand present: yes
In short: (§1)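 Ribozyme switch library plasmids linked to reporters were introduced into HEK293T cells at 4 µg per 6-well well, with ligand, if any, added 1 h before. Total RNA was extracted with EDTA 72 h later, reverse-transcribed, amplified, barcoded and sequenced. RNA level was computed from RNA over DNA reads relative to a spiked-in non-cleaving sequence or the top sequences, then scaled and log-transformed. The top set was 25 sequences, values were ×100 and log10, and the cutoff was ≥100 DNA reads.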

hypoxanthine [2] = variants of: B1; assay: normalized RNA/DNA level without ligand (relative to sTRSVctl = 100) (log10 (% of sTRSVctl)); ligand: hypoxanthine (xanthine aptamer); higher = less ribozyme self-cleavage, higher mRNA level; details: HEK293T, reporter: mCherry (pCS4076), ligand present: no
In short: as §1

| Variant | normalized RNA/DNA level with ligand (log10) (hypoxanthine [1]) | normalized RNA/DNA level without ligand (log10) (hypoxanthine [2]) |
| --- | --- | --- |
| UACUUG | 1.929 ± 0.0075 | 1.72 ± 0.064 |
| UACUUC | 1.98 ± 0.05 | 2 ± 0.058 |
| UACUUA | 1.95 ± 0.026 | 1.88 ± 0.033 |
| UAGGUU | 1.961 ± 0.0077 | 1.85 ± 0.015 |
| UAGGUA | 1.96 ± 0.033 | 1.84 ± 0.036 |
| UACUGG | 1.884 ± 0.015 | 1.491 ± 0.0069 |
| UACUGA | 1.95 ± 0.019 | 1.74 ± 0.02 |
| UACUGC | 1.97 ± 0.072 | 1.846 ± 0.0079 |
| UAUCAU | 1.922 ± 0.017 | 1.79 ± 0.045 |
| UAUCAG | 1.87 ± 0.019 | 1.7 ± 0.036 |
| GAGCGU | 1.915 ± 0.0047 | 1.647 ± 0.0019 |
| CAGACU | 1.92 ± 0.043 | 1.92 ± 0.022 |
| CAGACG | 1.98 ± 0.035 | 1.8 ± 0.081 |
| CAGACC | 2.04 ± 0.037 | 1.96 ± 0.045 |
| UAUAGG | 1.852 ± 0.017 | 1.43 ± 0.02 |
| UAUAGC | 1.95 ± 0.009 | 1.83 ± 0.054 |
| UAUAGA | 1.892 ± 0.0092 | 1.63 ± 0.019 |
| CAUCCC | 1.935 ± 0.0098 | 1.91 ± 0.033 |
| CAUCCG | 1.95 ± 0.026 | 1.91 ± 0.029 |
| CAUCCA | 1.97 ± 0.056 | 1.94 ± 0.055 |
| CAUCCU | 1.94 ± 0.066 | 1.94 ± 0.023 |
| UACUCU | 1.915 ± 0.0075 | 1.91 ± 0.026 |
| UACUCC | 2 ± 0.058 | 1.964 ± 0.011 |

| Variant | normalized RNA/DNA level with ligand (log10) (hypoxanthine [1]) | normalized RNA/DNA level without ligand (log10) (hypoxanthine [2]) |
| --- | --- | --- |
| UACUCG | 1.929 ± 0.009 | 1.72 ± 0.072 |
| GAGACC | 1.96 ± 0.048 | 1.82 ± 0.017 |
| UAUAAA | 1.89 ± 0.025 | 1.77 ± 0.04 |
| UAUAAC | 1.9 ± 0.025 | 1.829 ± 0.017 |
| AAUCUC | 2 ± 0.062 | 2.023 ± 0.02 |
| UAUCCA | 1.918 ± 0.0099 | 1.904 ± 0.011 |
| UAUCCU | 1.958 ± 0.0052 | 1.9 ± 0.03 |
| UAUCCC | 1.95 ± 0.045 | 1.9 ± 0.023 |
| GAGAGU | 1.87 ± 0.091 | 1.49 ± 0.029 |
| GACUGU | 1.89 ± 0.033 | 1.8123 ± 0.00033 |
| GACUGC | 1.905 ± 0.01 | 1.66 ± 0.052 |
| UAUCGU | 1.9 ± 0.052 | 1.7 ± 0.091 |
| UAUCGA | 1.92 ± 0.035 | 1.76 ± 0.046 |
| AAGCGC | 1.89 ± 0.051 | 1.6 ± 0.039 |
| UAGCAU | 1.91 ± 0.026 | 1.772 ± 0.0045 |
| UAGCAC | 1.927 ± 0.0061 | 1.8 ± 0.018 |
| CACUGC | 1.96 ± 0.037 | 1.909 ± 0.0035 |
| CACUGU | 2 ± 0.021 | 1.97 ± 0.022 |
| CACUGA | 1.95 ± 0.049 | 1.83 ± 0.022 |
| GAGCCC | 1.99 ± 0.053 | 1.906 ± 0.013 |
| GAGCCG | 1.85 ± 0.034 | 1.44 ± 0.021 |
| GAGCCU | 2.01 ± 0.028 | 1.94 ± 0.024 |
| GAGAUU | 1.92 ± 0.041 | 1.82 ± 0.03 |

| Variant | normalized RNA/DNA level with ligand (log10) (hypoxanthine [1]) | normalized RNA/DNA level without ligand (log10) (hypoxanthine [2]) |
| --- | --- | --- |
| CAGAAG | 1.9 ± 0.028 | 1.59 ± 0.021 |
| CAGAAU | 1.9 ± 0.034 | 1.64 ± 0.072 |
| CAGGUG | 1.9 ± 0.025 | 1.77 ± 0.03 |
| CAGGUC | 1.94 ± 0.015 | 1.874 ± 0.011 |
| CAGGUU | 1.975 ± 0.0057 | 1.86 ± 0.0041 |
| CAGCUA | 1.903 ± 0.012 | 1.65 ± 0.056 |
| CAGCUG | 1.946 ± 0.019 | 1.89 ± 0.028 |
| CAGCUU | 1.954 ± 0.0095 | 1.86 ± 0.027 |
| GAUACU | 1.94 ± 0.069 | 1.87 ± 0.029 |
| GAUACC | 1.95 ± 0.03 | 1.875 ± 0.016 |
| UAGUCU | 1.96 ± 0.028 | 1.88 ± 0.019 |
| UAGUCG | 1.924 ± 0.013 | 1.737 ± 0.0043 |
| UAGCCA | 1.93 ± 0.032 | 1.91 ± 0.082 |
| UAGCCG | 1.982 ± 0.016 | 1.728 ± 0.0043 |
| UAGCCC | 1.956 ± 0.018 | 1.885 ± 0.0052 |
| UAGCCU | 2 ± 0.037 | 1.953 ± 0.006 |
| AAUAAC | 1.919 ± 0.0067 | 1.81 ± 0.029 |
| CAUCUA | 2.01 ± 0.12 | 1.85 ± 0.055 |
| CAUCUC | 1.957 ± 0.0025 | 2.01 ± 0.021 |
| CAUCUG | 1.97 ± 0.022 | 1.92 ± 0.081 |
| GAGCAU | 1.944 ± 0.018 | 1.72 ± 0.022 |
| UAUAUU | 1.907 ± 0.0056 | 1.847 ± 0.0083 |
| UAUAUC | 1.94 ± 0.044 | 1.936 ± 0.0031 |

| Variant | normalized RNA/DNA level with ligand (log10) (hypoxanthine [1]) | normalized RNA/DNA level without ligand (log10) (hypoxanthine [2]) |
| --- | --- | --- |
| CAUCAC | 1.96 ± 0.06 | 1.92 ± 0.062 |
| CAUCAU | 1.921 ± 0.011 | 1.88 ± 0.043 |
| CAUCAA | 1.938 ± 0.011 | 1.81 ± 0.042 |
| GAGUCC | 2.015 ± 0.017 | 1.853 ± 0.013 |
| GAGUCG | 1.84 ± 0.019 | 1.38 ± 0.02 |
| GAGUCU | 1.96 ± 0.026 | 1.84 ± 0.01 |
| AACUUC | 1.96 ± 0.023 | 1.96 ± 0.023 |
| CAGGCU | 1.938 ± 0.0094 | 1.919 ± 0.0073 |
| CAGGCA | 1.912 ± 0.008 | 1.68 ± 0.069 |
| CAGGCG | 1.96 ± 0.035 | 1.837 ± 0.0025 |
| CAGGCC | 2 ± 0.027 | 2 ± 0.032 |
| UAGAUA | 1.917 ± 0.0088 | 1.82 ± 0.071 |
| UAGAUU | 1.93 ± 0.027 | 1.866 ± 0.017 |
| UAGAUC | 1.964 ± 0.012 | 1.955 ± 0.018 |
| CAGUAC | 1.898 ± 0.0032 | 1.668 ± 0.015 |
| CAGUAA | 1.855 ± 0.012 | 1.53 ± 0.081 |
| AAUAUC | 1.95 ± 0.055 | 1.945 ± 0.0067 |
| AAUAUU | 1.93 ± 0.088 | 1.88 ± 0.031 |
| UAGUUA | 1.942 ± 0.013 | 1.861 ± 0.0033 |
| UAGUUU | 1.92 ± 0.04 | 1.86 ± 0.023 |
| UAGUUG | 1.93 ± 0.053 | 1.707 ± 0.0035 |
| UAGUUC | 1.943 ± 0.0072 | 1.87 ± 0.008 |
| CAGGGU | 1.884 ± 0.017 | 1.75 ± 0.021 |

| Variant | normalized RNA/DNA level with ligand (log10) (hypoxanthine [1]) | normalized RNA/DNA level without ligand (log10) (hypoxanthine [2]) |
| --- | --- | --- |
| CAGGGC | 1.99 ± 0.056 | 1.84 ± 0.052 |
| CAGGGA | 1.95 ± 0.04 | 1.781 ± 0.014 |
| UAGAGC | 1.908 ± 0.017 | 1.706 ± 0.0082 |
| CAGCCG | 1.947 ± 0.0075 | 1.88 ± 0.071 |
| CAGCCA | 1.9708 ± 0.0019 | 1.78 ± 0.051 |
| CAGCCC | 2.03 ± 0.052 | 1.94 ± 0.023 |
| CAGCCU | 2.039 ± 0.0086 | 1.91 ± 0.038 |
| GAGGUA | 1.862 ± 0.011 | 1.673 ± 0.0085 |
| GAGGUC | 2 ± 0.043 | 1.843 ± 0.016 |
| GAGGUU | 1.97 ± 0.035 | 1.86 ± 0.023 |
| CAGAGC | 1.926 ± 0.019 | 1.74 ± 0.022 |
| CAGAGU | 1.97 ± 0.035 | 1.79 ± 0.056 |
| CACUUG | 1.95 ± 0.1 | 1.88 ± 0.043 |
| CACUUA | 1.87 ± 0.057 | 1.779 ± 0.0095 |
| CAUAGU | 2 ± 0.039 | 1.88 ± 0.019 |
| CAUAGC | 1.923 ± 0.0099 | 1.86 ± 0.014 |
| CAUAGG | 1.836 ± 0.015 | 1.43 ± 0.11 |
| CAGUCG | 1.98 ± 0.025 | 1.888 ± 0.0091 |
| CAGUCC | 1.984 ± 0.0083 | 1.88 ± 0.024 |
| CAGUCU | 1.98 ± 0.005 | 1.792 ± 0.016 |
| CAGUCA | 1.93 ± 0.025 | 1.6768 ± 0.0013 |
| AAGGAC | 1.905 ± 0.017 | 1.648 ± 0.012 |
| GAGGAU | 1.955 ± 0.019 | 1.7 ± 0.074 |

— the supplement of paper PMC6757056
